For experiment [1], the target named is T1, biotinylated recombinant human IL-12Rβ2 (human, UniProt Q99665 24-622, random biotinylated).
T1 construct: Recombinant protein produced in-house, biotinylated; also called hIL-12RB2; human IL-12RB2
T1 sequence: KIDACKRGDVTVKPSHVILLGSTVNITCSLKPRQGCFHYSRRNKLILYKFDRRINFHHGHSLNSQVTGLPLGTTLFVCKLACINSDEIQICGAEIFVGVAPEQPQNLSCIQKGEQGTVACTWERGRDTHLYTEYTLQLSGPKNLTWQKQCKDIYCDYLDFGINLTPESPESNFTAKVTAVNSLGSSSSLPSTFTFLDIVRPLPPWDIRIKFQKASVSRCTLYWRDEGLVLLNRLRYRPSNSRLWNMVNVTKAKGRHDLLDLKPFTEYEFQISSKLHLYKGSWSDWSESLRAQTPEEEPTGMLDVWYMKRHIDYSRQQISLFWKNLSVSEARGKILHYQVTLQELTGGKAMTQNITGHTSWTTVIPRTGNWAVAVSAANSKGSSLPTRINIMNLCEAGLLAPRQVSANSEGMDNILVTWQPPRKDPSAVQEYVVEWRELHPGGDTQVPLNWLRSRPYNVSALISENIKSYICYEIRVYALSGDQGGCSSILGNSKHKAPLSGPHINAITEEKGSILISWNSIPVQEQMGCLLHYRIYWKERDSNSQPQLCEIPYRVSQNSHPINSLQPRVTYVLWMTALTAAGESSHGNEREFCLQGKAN
Kind of experiment: ELISA, periplasmic extract on biotinylated hIL-12Rβ2, signal over control wells. For orientation: ELISA stands for enzyme-linked immunosorbent assay.

In experiment [2] the target is T2, biotinylated recombinant mouse IL-12Rβ2 (mouse, UniProt P97378 24-637, random biotinylated).
T2 construct: Recombinant protein produced in-house, biotinylated; also called mIL-12RB2; mouse IL-12RB2
T2 sequence: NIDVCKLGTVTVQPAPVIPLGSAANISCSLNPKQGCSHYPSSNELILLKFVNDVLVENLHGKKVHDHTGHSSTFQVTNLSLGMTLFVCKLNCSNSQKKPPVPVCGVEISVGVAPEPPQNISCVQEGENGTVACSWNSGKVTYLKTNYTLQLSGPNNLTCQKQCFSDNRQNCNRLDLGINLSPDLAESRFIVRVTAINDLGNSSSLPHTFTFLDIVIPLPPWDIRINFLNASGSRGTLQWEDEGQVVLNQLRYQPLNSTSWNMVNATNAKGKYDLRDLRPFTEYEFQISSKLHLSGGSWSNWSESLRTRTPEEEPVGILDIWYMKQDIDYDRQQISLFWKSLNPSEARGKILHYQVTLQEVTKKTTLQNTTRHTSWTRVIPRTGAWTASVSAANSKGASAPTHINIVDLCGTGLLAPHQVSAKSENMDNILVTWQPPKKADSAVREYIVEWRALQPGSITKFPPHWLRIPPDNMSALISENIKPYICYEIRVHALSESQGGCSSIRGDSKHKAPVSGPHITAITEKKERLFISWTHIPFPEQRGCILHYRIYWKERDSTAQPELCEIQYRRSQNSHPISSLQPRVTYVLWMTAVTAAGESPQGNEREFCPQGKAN
Nature of the experiment: ELISA, periplasmic extract on biotinylated mIL-12Rβ2, signal over control wells.

B1: anti-IL-12Rβ2 VHH clone 20542 (VHH, not shown: small tags and cut ends)
VHH: QVQLQESGGGLVQAGGSLRLSCAASGRTFSTYAMGWFRQAPGKEREFVAAISWSGGRTYYADSVKGRFTISRDNAKNTAYLQMSSLIPEDTAVYYCAADPADYTGSYYYQRSYDYWGQGTQVTVSS
notes: tested as periplasmic extract; also called 3CAMS12
In the case of B1, the “ELISA binding hIL-12RB2/control” value in experiment [1] was determined as 0.849 ratio. Further, in experiment [2], the “ELISA binding mIL-12RB2/control” value was 4.28 ratio.

B2: anti-IL-12Rβ2 VHH clone 20532 (VHH, not shown: small tags and cut ends)
VHH: QVQLQESGGGLVQAGGSLRLSCAASGRTFVTYAMGWFRQAPGKEREFVAAISWSGGRLYYADSVKGRFTISRDNAKNTVYLQMNSLKPEDTAVYYCAADPQDYTGRDYQRRRYDYWGQGTQVTVSS
notes: tested as periplasmic extract; also called 2CAMS19
Consider B2, for which the “ELISA binding hIL-12RB2/control” value in experiment [1] was 0.812 ratio. For the same molecule, in experiment [2], the “ELISA binding mIL-12RB2/control” value stood at 3.81 ratio.

B3: anti-IL-12Rβ2 VHH clone 20553 (VHH, not shown: small tags and cut ends)
VHH: QVQLQESGGGLVQPGGSLRLSCAASGRTFSTYAMGWFRQAPGKEREFVAAISWSGGRTYYADSVKGRFTISRDNAKNTAYLQMSSLIPEDTAVYYCAADPADYTGSYYYQRSYDYWGQGTQVTVSS
notes: tested as periplasmic extract; also called 3CAMS73
On to B3, for which the “ELISA binding hIL-12RB2/control” value in experiment [1] came out at 0.99 ratio. Further, the “ELISA binding mIL-12RB2/control” value in experiment [2] is 15.2 ratio.

B4: anti-IL-12Rβ2 VHH clone 20515 (VHH, not shown: small tags and cut ends)
VHH: QVQLQESGGGLVQAGGSLRLSCAASGRTFSTYAMGWFRQAPGKEREFVAAISWSGGRTYYADSVKGRFAISRDNAKNTAYLQMNSLKPEDTAVYYCAADPSDYMGSYYGARRYDYWGQGTQVTVSS
notes: tested as periplasmic extract; also called 3CAM79
As to B4, the “ELISA binding hIL-12RB2/control” value in experiment [1] turned out to be 1.31 ratio. In addition, the “ELISA binding mIL-12RB2/control” value in experiment [2] is 12 ratio.

B5: anti-IL-12Rβ2 VHH clone 20466 (VHH, not shown: small tags and cut ends)
VHH: QVQLQESGGGLVQAGDSLRLSCAPSGRTFSTYAMGWFRQAPGKEREFVAGISWSGGRTYYADSVKGRFTISRDNAKNTVYLQMNSLKPEDTAVYYCAADPMDYSGSLYAQRSYDYWGQGTQVTVSS
notes: tested as periplasmic extract; also called 2CAM2
Consider B5, for which, in experiment [1], the “ELISA binding hIL-12RB2/control” value is 1.03 ratio. Moreover, in experiment [2], the “ELISA binding mIL-12RB2/control” value was determined as 8.48 ratio.

B6: anti-IL-12Rβ2 VHH clone 20471 (VHH, not shown: small tags and cut ends)
VHH: QVQLQESGGGLVQAGGSLRLSCAASGRTFVTYAMGWFRQAPGKEREFVAAISWSGGRLYYADSAKGRFTISRDNAKNTVYLQMNSLKPEDTAVYYCAADPQDYTGRDYQRRRYDYWGQGTQVTVSS
notes: tested as periplasmic extract; also called 2CAM11
For the molecule B6, the “ELISA binding hIL-12RB2/control” value in experiment [1] is 0.991 ratio. Moreover, the “ELISA binding mIL-12RB2/control” value in experiment [2] was 5.71 ratio.

B7: anti-IL-12Rβ2 VHH clone 20464 (VHH, not shown: small tags and cut ends)
VHH: QVQLQESGGGLVQAGGSLRLFCTASGSIFAIDDMYWYRQAPGKQREFVAYITATNSANYLDSVNGRFTISRDNAKNSVYLQMNSLKPEDTAVYYCNAKQIVGFQIDEYWGQGTQVTVSS
notes: tested as periplasmic extract; also called 3CRM86
For the molecule B7, the “ELISA binding hIL-12RB2/control” value in experiment [1] came to 1.29 ratio. Besides, the “ELISA binding mIL-12RB2/control” value in experiment [2] worked out at 5.44 ratio.

B8: anti-IL-12Rβ2 VHH clone 20529 (VHH, not shown: small tags and cut ends)
VHH: QVQLQESGGGSVQAGDSLRLSCTASGSIFAIDDMYWYRQAPGKQREFVAYITATNSANYLDSVNGRFTISRDNAKNSVYLQMNSLKPEDTAVYYCNAKQIVGFQIDEYWGQGTQVTVSS
notes: tested as periplasmic extract; also called 3CRMS94
For B8, the “ELISA binding hIL-12RB2/control” value in experiment [1] was found to be 0.858 ratio. In addition, the “ELISA binding mIL-12RB2/control” value in experiment [2] turned out to be 13.2 ratio.

B9: anti-IL-12Rβ2 VHH clone 20522 (VHH, not shown: small tags and cut ends)
VHH: QVQLQESGGGLVQPGGSLRLSCTASGSIFAIDDMYWYRQAPGKQREFVAYITATNSANYLDSVNGRFTISRDNAKNSVYLQMNSLKPEDTAVYYCNAKQIVGFQIDDYWGQGTQVTVSS
notes: tested as periplasmic extract; also called 2CRMS58
With B9, in experiment [1], the “ELISA binding hIL-12RB2/control” value was 1.01 ratio. Further, the “ELISA binding mIL-12RB2/control” value in experiment [2] amounted to 5.21 ratio.

B10: anti-IL-12Rβ2 VHH clone 20517 (VHH, not shown: small tags and cut ends)
VHH: QVQLQESGGGLAQPGGSLRLSCTASGSIFAIDDMYWYRQAPGKQREFVAYITATNSANYLDSVNGRFTISRDNAKNSVYLQMNSLKPEDTAVYYCNAKQIVGFQIDEYWGQGTQVTVSS
notes: tested as periplasmic extract; also called 2CRMS10
In the case of B10, the “ELISA binding hIL-12RB2/control” value in experiment [1] came to 0.968 ratio. Further, in experiment [2], the “ELISA binding mIL-12RB2/control” value came to 5.47 ratio.

B11: anti-IL-12Rβ2 VHH clone 20518 (VHH, not shown: small tags and cut ends)
VHH: QVQLQESGGGLVQPGGSLRLSCTASGSIFAIDDMYWYRQAPGRQREFVAYITATNSANYLDSVNGRFTISRDNAKNSVYLQMNSLKPEDTAVYYCNAKQIVGFQIDEYWGQGTQVTVSS
notes: tested as periplasmic extract; also called 2CRMS15
As to B11, the “ELISA binding hIL-12RB2/control” value in experiment [1] amounted to 1.01 ratio. The “ELISA binding mIL-12RB2/control” value in experiment [2] worked out at 4.43 ratio.

B12: anti-IL-12Rβ2 VHH clone 20524 (VHH, not shown: small tags and cut ends)
VHH: QVQLQESGGGLVQAGGSLRLSCTASGSIFAIDDMYWYRQAPGKQREFVAYITATNSANYLDPVNGRFTISRDNAKNSVYLQMNSLKPEDTAVYYCNAKQIVGFQIDEYWGQGTQVTVSS
notes: tested as periplasmic extract; also called 3CRMS14
Regarding B12, the “ELISA binding hIL-12RB2/control” value in experiment [1] is 0.93 ratio. Also, the “ELISA binding mIL-12RB2/control” value in experiment [2] was 9.62 ratio.

B13: anti-IL-12Rβ2 VHH clone 20519 (VHH, not shown: small tags and cut ends)
VHH: QVQLQESGGGLVQAGESLRLSCTASGSIFAIDDMYWYRQAPGKQREFVAYITATNSANYLDSVNGRFTISRDNAKNSVYLQMNSLKPEDTAVYYCNAKQIVGFQIDEYWGQGTQVTVSS
notes: tested as periplasmic extract; also called 2CRMS16
B13: in experiment [1], the “ELISA binding hIL-12RB2/control” value worked out at 0.973 ratio. For the same molecule, the “ELISA binding mIL-12RB2/control” value in experiment [2] came out at 5.44 ratio.

B14: anti-IL-12Rβ2 VHH clone 20479 (VHH, not shown: small tags and cut ends)
VHH: QVQLQESGGGLVQTGGSLRLSCAASGRTFSNSVMGWFRQAPGKEREFVAALMWSAGSEFYTDSVKGRFSISGDGAKNTVYLQMNSLKAEDTAVYYCAAKNPPHRWSDIGKSPHYEYWGQGTQVTVSS
notes: tested as periplasmic extract; also called 2CAM33
As to B14, in experiment [1], the “ELISA binding hIL-12RB2/control” value was determined as 1.07 ratio. In experiment [2], the “ELISA binding mIL-12RB2/control” value came out at 9.41 ratio.

B15: anti-IL-12Rβ2 VHH clone 20484 (VHH, not shown: small tags and cut ends)
VHH: QVQLQESGGGLVQPGGSLRLSCAASGRTFSNSVMGWFRQAPGKEREFVAALMWSAGSEFYTDSVKGRFSISGDGAKNTVYLQMNSLKAEDTAVYYCAAKNPPHRWSDIGKSPHYEYWGQGTQVTVSS
notes: tested as periplasmic extract; also called 2CAM42
In the case of B15, the “ELISA binding hIL-12RB2/control” value in experiment [1] was 1.01 ratio. Besides, the “ELISA binding mIL-12RB2/control” value in experiment [2] turned out to be 4.86 ratio.

B16: anti-IL-12Rβ2 VHH clone 20483 (VHH, not shown: small tags and cut ends)
VHH: QVQLQESGGGLVQAGGSLRLSCAASGRTFSNSVIGWFRQAPGKEREFVAALSWSAGSEFYVDSFKGRFSISRDNAKNTVYLQMNSLKPEDTAVYYCAAKNPPHRWSDIGKSPQYAYWGQGTQVTVSS
notes: tested as periplasmic extract; also called 2CAM41
Turning to B16, the “ELISA binding hIL-12RB2/control” value in experiment [1] was determined as 1.01 ratio. Moreover, the “ELISA binding mIL-12RB2/control” value in experiment [2] stood at 4.68 ratio.

B17: anti-IL-12Rβ2 VHH clone 20496 (VHH, not shown: small tags and cut ends)
VHH: QVQLQESGGGLVQAGGSLRLSCAASGRTLSNSVMGWFRQAPGKEREFVAALMWSAGSEFYTDSVKGRFSISGDGAKNTVYLQMNSLKAEDTAVYYCAAKNPPHRWSDIGKSPHYEYWGQGTQVTVSS
notes: tested as periplasmic extract; also called 2CAM71
On to B17, for which the “ELISA binding hIL-12RB2/control” value in experiment [1] stood at 1.01 ratio. For the same molecule, in experiment [2], the “ELISA binding mIL-12RB2/control” value came to 19.5 ratio.

B18: anti-IL-12Rβ2 VHH clone 20468 (VHH, not shown: small tags and cut ends)
VHH: QVQLQESGGGLVQAGGSLRLSCVASGRTFSSYGMGWFRQAPGKEREFVTGISSAGSWIGDITSYADSVKGRFTISRDNAKNILYLQMNSLKPEDTAVYYCAAAYHGSRYYVGSTANEYTTWGQGTQVTVSS
notes: tested as periplasmic extract; also called 2CAM6
As for B18, the “ELISA binding hIL-12RB2/control” value in experiment [1] worked out at 0.955 ratio. Also, the “ELISA binding mIL-12RB2/control” value in experiment [2] worked out at 9.24 ratio.

B19: anti-IL-12Rβ2 VHH clone 20474 (VHH, not shown: small tags and cut ends)
VHH: QVQLQESGGGLVQAGGSLRLSCAASGFTFDDYTIGWFRQAPGKEREFVAALSWSAGSTFFTDSVKDRFSISRDNAKNTVLLQMNSLKPEDTAVYYCAAKNPPHRWSDITKSLQYAYWGQGTQVTVSS
notes: tested as periplasmic extract; also called 2CAM16
Take B19: in experiment [1], the “ELISA binding hIL-12RB2/control” value stood at 1.01 ratio. Further, the “ELISA binding mIL-12RB2/control” value in experiment [2] was 6.43 ratio.

The record behind these values is patent publication US20260209362A1 (VIB VZW, published 2026).
